# B1: YPEL3 (parent)
# chain: SKPKTFQAYLDDCHRRYSCAHCRA
# Variants of: B1
# Assay: protein stability index of a GFP-peptide fusion (GPS, HEK-293T) (PSI 1-6); higher = more stable
# Conditions: c terminus: a fixed tail appended
# 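Note: lentivirally expressed fusions sorted by FACS into six bins by GFP to DsRed ratio, PSI derived from sequencing read proportions per bin multiplied by bin number.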
row,Variant,protein stability index
1,SKPKTFQAYGDDCHRRYSCAHCRA,2.79
2,SKPKTFQAYPDDCHRRYSCAHCRA,2.79
3,SKPKTFQAYHDDCHRRYSCAHCRA,3.32
4,SKPKTFQAYEDDCHRRYSCAHCRA,3.4
5,SKPKTFQAYCDDCHRRYSCAHCRA,3.6
6,SKPKTFQAYMDDCHRRYSCAHCRA,1.75
7,SKPKTFQAYQDDCHRRYSCAHCRA,2.48
8,SKPKTFQAYRDDCHRRYSCAHCRA,2.62
9,SKPKTFQAYADDCHRRYSCAHCRA,2.54
10,SKPKTFQAYFDDCHRRYSCAHCRA,1.99
11,SKPKTFQAYNDDCHRRYSCAHCRA,2.62
12,SKPKTFQAYTDDCHRRYSCAHCRA,2.14
13,SKPKTFQAYSDDCHRRYSCAHCRA,2.8
14,SKPKTFQAYYDDCHRRYSCAHCRA,1.97
15,SKPKTFQAYVDDCHRRYSCAHCRA,1.57
16,SKPKTFQAYKDDCHRRYSCAHCRA,2.94
17,SKPKTFQAYWDDCHRRYSCAHCRA,2.05
18,SKPKTFQAYDDDCHRRYSCAHCRA,2.53
19,SKPKTFQAYIDDCHRRYSCAHCRA,2.41
20,SKPKTFQALLDDCHRRYSCAHCRA,1.96
21,SKPKTFQAGLDDCHRRYSCAHCRA,2.85
22,SKPKTFQAALDDCHRRYSCAHCRA,2.19
23,SKPKTFQAHLDDCHRRYSCAHCRA,1.88
24,SKPKTFQASLDDCHRRYSCAHCRA,1.4

row,Variant,protein stability index
1,SKPKTFQAQLDDCHRRYSCAHCRA,2.45
2,SKPKTFQATLDDCHRRYSCAHCRA,1.52
3,SKPKTFQADLDDCHRRYSCAHCRA,2.38
4,SKPKTFQACLDDCHRRYSCAHCRA,2.33
5,SKPKTFQAELDDCHRRYSCAHCRA,3
6,SKPKTFQAVLDDCHRRYSCAHCRA,2.41
7,SKPKTFQAFLDDCHRRYSCAHCRA,2.67
8,SKPKTFQANLDDCHRRYSCAHCRA,2.17
9,SKPKTFQAWLDDCHRRYSCAHCRA,1.93
10,SKPKTFQAILDDCHRRYSCAHCRA,2
11,SKPKTFQAMLDDCHRRYSCAHCRA,1.89
12,SKPKTFQAPLDDCHRRYSCAHCRA,3.08
13,SKPKTFQARLDDCHRRYSCAHCRA,1.94
14,SKPKTFQAKLDDCHRRYSCAHCRA,1.93
15,SKPKTFQAYLDDCERRYSCAHCRA,1.56
16,SKPKTFQAYLDDCMRRYSCAHCRA,2.34
17,SKPKTFQAYLDDCGRRYSCAHCRA,3.08
18,SKPKTFQAYLDDCLRRYSCAHCRA,1.82
19,SKPKTFQAYLDDCVRRYSCAHCRA,2.15
20,SKPKTFQAYLDDCARRYSCAHCRA,2.03
21,SKPKTFQAYLDDCWRRYSCAHCRA,3.12
22,SKPKTFQAYLDDCPRRYSCAHCRA,2.05
23,SKPKTFQAYLDDCFRRYSCAHCRA,1.07
24,SKPKTFQAYLDDCNRRYSCAHCRA,2.19

row,Variant,protein stability index
1,SKPKTFQAYLDDCIRRYSCAHCRA,2.05
2,SKPKTFQAYLDDCRRRYSCAHCRA,1.73
3,SKPKTFQAYLDDCQRRYSCAHCRA,2.23
4,SKPKTFQAYLDDCCRRYSCAHCRA,2.28
5,SKPKTFQAYLDDCYRRYSCAHCRA,1.56
6,SKPKTFQAYLDDCSRRYSCAHCRA,2.06
7,SKPKTFQAYLDDCDRRYSCAHCRA,1.67
8,SKPKTFQAYLDDCTRRYSCAHCRA,1.8
9,SKPKTFQAYLDDCKRRYSCAHCRA,2.78
10,SKPKTFQAYLDDVHRRYSCAHCRA,2.54
11,SKPKTFQAYLDDWHRRYSCAHCRA,1.71
12,SKPKTFQAYLDDAHRRYSCAHCRA,1.8
13,SKPKTFQAYLDDSHRRYSCAHCRA,2.25
14,SKPKTFQAYLDDYHRRYSCAHCRA,2.44
15,SKPKTFQAYLDDHHRRYSCAHCRA,1.75
16,SKPKTFQAYLDDQHRRYSCAHCRA,2.48
17,SKPKTFQAYLDDFHRRYSCAHCRA,2.1
18,SKPKTFQAYLDDRHRRYSCAHCRA,2.19
19,SKPKTFQAYLDDLHRRYSCAHCRA,2.12
20,SKPKTFQAYLDDIHRRYSCAHCRA,1.94
21,SKPKTFQAYLDDEHRRYSCAHCRA,1.78
22,SKPKTFQAYLDDDHRRYSCAHCRA,1.99
23,SKPKTFQAYLDDKHRRYSCAHCRA,2.69
24,SKPKTFQAYLDDMHRRYSCAHCRA,2.79

row,Variant,protein stability index
1,SKPKTFQAYLDDTHRRYSCAHCRA,2.01
2,SKPKTFQAYLDDPHRRYSCAHCRA,1.68
3,SKPKTFQAYLDDNHRRYSCAHCRA,2.27
4,SKPKTFQAYLDDGHRRYSCAHCRA,2.07
5,SKPKTFQAYLADCHRRYSCAHCRA,1.89
6,SKPKTFQAYLRDCHRRYSCAHCRA,1.9
7,SKPKTFQAYLLDCHRRYSCAHCRA,2.11
8,SKPKTFQAYLKDCHRRYSCAHCRA,2.83
9,SKPKTFQAYLQDCHRRYSCAHCRA,2.21
10,SKPKTFQAYLTDCHRRYSCAHCRA,2.14
11,SKPKTFQAYLWDCHRRYSCAHCRA,1.5
12,SKPKTFQAYLCDCHRRYSCAHCRA,3.36
13,SKPKTFQAYLHDCHRRYSCAHCRA,2.37
14,SKPKTFQAYLPDCHRRYSCAHCRA,2.54
15,SKPKTFQAYLGDCHRRYSCAHCRA,1.97
16,SKPKTFQAYLSDCHRRYSCAHCRA,1.9
17,SKPKTFQAYLIDCHRRYSCAHCRA,2.92
18,SKPKTFQAYLEDCHRRYSCAHCRA,2.59
19,SKPKTFQAYLMDCHRRYSCAHCRA,2.47
20,SKPKTFQAYLNDCHRRYSCAHCRA,2.6
21,SKPKTFQAYLFDCHRRYSCAHCRA,3.03
22,SKPKTFQAYLVDCHRRYSCAHCRA,1.75
23,SKPKTFQAYLYDCHRRYSCAHCRA,1.72
24,SKPKTFQAYLDDCHREYSCAHCRA,3.04

row,Variant,protein stability index
1,SKPKTFQAYLDDCHRCYSCAHCRA,2.4
2,SKPKTFQAYLDDCHRDYSCAHCRA,2.45
3,SKPKTFQAYLDDCHRSYSCAHCRA,1.59
4,SKPKTFQAYLDDCHRPYSCAHCRA,1.94
5,SKPKTFQAYLDDCHRGYSCAHCRA,1.33
6,SKPKTFQAYLDDCHRLYSCAHCRA,2.33
7,SKPKTFQAYLDDCHRNYSCAHCRA,1.45
8,SKPKTFQAYLDDCHRFYSCAHCRA,1.76
9,SKPKTFQAYLDDCHRIYSCAHCRA,1.55
10,SKPKTFQAYLDDCHRYYSCAHCRA,1.83
11,SKPKTFQAYLDDCHRVYSCAHCRA,2.34
12,SKPKTFQAYLDDCHRMYSCAHCRA,1.88
13,SKPKTFQAYLDDCHRTYSCAHCRA,2.46
14,SKPKTFQAYLDDCHRHYSCAHCRA,2.3
15,SKPKTFQAYLDDCHRKYSCAHCRA,1.73
16,SKPKTFQAYLDDCHRAYSCAHCRA,1.76
17,SKPKTFQAYLDDCHRQYSCAHCRA,2.5
18,SKPKTFQAYLDDCHARYSCAHCRA,2.1
19,SKPKTFQAYLDDCHGRYSCAHCRA,1.88
20,SKPKTFQAYLDDCHVRYSCAHCRA,1.57
21,SKPKTFQAYLDDCHNRYSCAHCRA,2.79
22,SKPKTFQAYLDDCHERYSCAHCRA,3.59
23,SKPKTFQAYLDDCHMRYSCAHCRA,1.68
24,SKPKTFQAYLDDCHQRYSCAHCRA,1.65

row,Variant,protein stability index
1,SKPKTFQAYLDDCHPRYSCAHCRA,1.82
2,SKPKTFQAYLDDCHWRYSCAHCRA,2.2
3,SKPKTFQAYLDDCHIRYSCAHCRA,2.25
4,SKPKTFQAYLDDCHKRYSCAHCRA,2.15
5,SKPKTFQAYLDDCHCRYSCAHCRA,2.72
6,SKPKTFQAYLDDCHSRYSCAHCRA,1.61
7,SKPKTFQAYLDDCHDRYSCAHCRA,2.67
8,SKPKTFQAYLDDCHLRYSCAHCRA,2.01
9,SKPKTFQAYLDDCHHRYSCAHCRA,2.72
10,SKPKTFQAYLDDCHYRYSCAHCRA,1.56
11,SKPKTFQAYLDDCHFRYSCAHCRA,2.07
12,SKPKTFQAYLDDCHTRYSCAHCRA,2.48
13,SKPKTFQYYLDDCHRRYSCAHCRA,2.02
14,SKPKTFQQYLDDCHRRYSCAHCRA,2.5
15,SKPKTFQMYLDDCHRRYSCAHCRA,1.66
16,SKPKTFQLYLDDCHRRYSCAHCRA,2.4
17,SKPKTFQWYLDDCHRRYSCAHCRA,2.09
18,SKPKTFQKYLDDCHRRYSCAHCRA,2.31
19,SKPKTFQIYLDDCHRRYSCAHCRA,1.81
20,SKPKTFQHYLDDCHRRYSCAHCRA,2.51
21,SKPKTFQTYLDDCHRRYSCAHCRA,2.1
22,SKPKTFQSYLDDCHRRYSCAHCRA,1.82
23,SKPKTFQPYLDDCHRRYSCAHCRA,2.62
24,SKPKTFQNYLDDCHRRYSCAHCRA,2.49

row,Variant,protein stability index
1,SKPKTFQVYLDDCHRRYSCAHCRA,2.23
2,SKPKTFQRYLDDCHRRYSCAHCRA,1.88
3,SKPKTFQAYLDDCHRRYICAHCRA,2.37
4,SKPKTFQAYLDDCHRRYDCAHCRA,1.5
5,SKPKTFQAYLDDCHRRYGCAHCRA,2.5
6,SKPKTFQAYLDDCHRRYFCAHCRA,1.91
7,SKPKTFQAYLDDCHRRYECAHCRA,1.52
8,SKPKTFQAYLDDCHRRYKCAHCRA,2.01
9,SKPKTFQAYLDQCHRRYSCAHCRA,2.01
10,SKPKTFQAYLDWCHRRYSCAHCRA,1.67
11,SKPKTFQAYLDVCHRRYSCAHCRA,1.96
12,SKPKTFQAYLDECHRRYSCAHCRA,2.36
13,SKPKTFQAYLDKCHRRYSCAHCRA,2.9
14,SKPKTFQAYLDMCHRRYSCAHCRA,2.69
15,SKPKTFQAYLDFCHRRYSCAHCRA,1.7
16,SKPKTFQAYLDCCHRRYSCAHCRA,2.74
17,SKPKTFQAYLDICHRRYSCAHCRA,2.22
18,SKPKTFQAYLDGCHRRYSCAHCRA,2.64
19,SKPKTFQAYLDNCHRRYSCAHCRA,2.12
20,SKPKTFQAYLDHCHRRYSCAHCRA,2.35
21,SKPKTFQAYLDRCHRRYSCAHCRA,2.4
22,SKPKTFQAYLDYCHRRYSCAHCRA,2.28
23,SKPKTFQAYLDACHRRYSCAHCRA,2.19
24,SKPKTFQAYLDLCHRRYSCAHCRA,2.34

row,Variant,protein stability index
1,SKPKTFQAYLDSCHRRYSCAHCRA,2
2,SKPKTFQAYLDTCHRRYSCAHCRA,2.35
3,SKPKTFQAYLDPCHRRYSCAHCRA,2.57
4,SKPKTFQAYLDDCHRRISCAHCRA,2.13
5,SKPKTFQAYLDDCHRRRSCAHCRA,2.79
6,SKPKTFQAYLDDCHRRLSCAHCRA,2
7,SKPKTFQAYLDDCHRRTSCAHCRA,2.37
8,SKPKTFQAYLDDCHRRASCAHCRA,1.99
9,SKPKTFQAYLDDCHRRGSCAHCRA,2.02
10,SKPKTFQAYLDDCHRRFSCAHCRA,3.01
11,SKPKTFQAYLDDCHRRPSCAHCRA,1.93
12,SKPKTFQAYLDDCHRRNSCAHCRA,1.8
13,SKPKTFQAYLDDCHRRHSCAHCRA,2.07
14,SKPKTFQAYLDDCHRRKSCAHCRA,3.43
15,SKPKTFQAYLDDCHRRMSCAHCRA,1.64
16,SKPKTFQAYLDDCHRRESCAHCRA,2.66
17,SKPKTFQAYLDDCHRRVSCAHCRA,1.39
18,SKPKTFQAYLDDCHRRDSCAHCRA,2.44
19,SKPKTFQAYLDDCHRRCSCAHCRA,3.26
20,SKPKTFQAYLDDCHRRSSCAHCRA,1.89
